Laboratory results published in patent US20240294593A1 (Genentech, published 2024).

Target: T1, human PD-1-His (human, UniProt Q15116 25-167, limits assumed)
T1 construct: Antigen of the Octet assays; not shown: His tag
Experiment: Octet

T1 sequence (Q15116 25-167 limits assumed): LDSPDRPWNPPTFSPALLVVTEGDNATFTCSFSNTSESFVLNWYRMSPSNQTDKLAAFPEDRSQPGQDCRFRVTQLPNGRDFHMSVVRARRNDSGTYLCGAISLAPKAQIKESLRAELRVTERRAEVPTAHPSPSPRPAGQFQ

Kd | koff | kon | Binder
177 nM | 0.0229 s⁻¹ | 130000 M⁻¹ s⁻¹ | H1_L1.26 (antibody, V domains shown, also called VL-N34S; Kabat 28) VH: EVQLVESGGGLVQPGGSLRLSCAASGFTFSSFGMHWVRQAPGKGLEWVSYISSGSSIIYYADSVKGRFTISRDNAKNSLYLQMNSLRAEDTAVYYCARGGRLVWSPDYWGQGTLVTVSS VL: DIVMTQSPDSLAVSLGERATINCKSSQSLLNSGSQKNYLTWYQQKPGQPPKLLIYWASTRESGVPDRFTGSGSGTDFTLTISSLQAEDVAVYYCQNDYSYPFTFGSGTKLEIKR
38.1 nM | 0.00455 s⁻¹ | 120000 M⁻¹ s⁻¹ | H1_L1.40 (antibody, V domains shown, also called VL-K36E; Kabat 30) VH: EVQLVESGGGLVQPGGSLRLSCAASGFTFSSFGMHWVRQAPGKGLEWVSYISSGSSIIYYADSVKGRFTISRDNAKNSLYLQMNSLRAEDTAVYYCARGGRLVWSPDYWGQGTLVTVSS VL: DIVMTQSPDSLAVSLGERATINCKSSQSLLNSGNQENYLTWYQQKPGQPPKLLIYWASTRESGVPDRFTGSGSGTDFTLTISSLQAEDVAVYYCQNDYSYPFTFGSGTKLEIKR
54.5 nM | 0.00596 s⁻¹ | 109000 M⁻¹ s⁻¹ | H1_L1.39 (antibody, V domains shown, also called VL-K36R; Kabat 30) VH: EVQLVESGGGLVQPGGSLRLSCAASGFTFSSFGMHWVRQAPGKGLEWVSYISSGSSIIYYADSVKGRFTISRDNAKNSLYLQMNSLRAEDTAVYYCARGGRLVWSPDYWGQGTLVTVSS VL: DIVMTQSPDSLAVSLGERATINCKSSQSLLNSGNQRNYLTWYQQKPGQPPKLLIYWASTRESGVPDRFTGSGSGTDFTLTISSLQAEDVAVYYCQNDYSYPFTFGSGTKLEIKR
19.9 nM | 0.00291 s⁻¹ | 146000 M⁻¹ s⁻¹ | H1_L1.44 (antibody, V domains shown, also called VL-K36G; Kabat 30) VH: EVQLVESGGGLVQPGGSLRLSCAASGFTFSSFGMHWVRQAPGKGLEWVSYISSGSSIIYYADSVKGRFTISRDNAKNSLYLQMNSLRAEDTAVYYCARGGRLVWSPDYWGQGTLVTVSS VL: DIVMTQSPDSLAVSLGERATINCKSSQSLLNSGNQGNYLTWYQQKPGQPPKLLIYWASTRESGVPDRFTGSGSGTDFTLTISSLQAEDVAVYYCQNDYSYPFTFGSGTKLEIKR
51.5 nM | 0.0117 s⁻¹ | 227000 M⁻¹ s⁻¹ | H1_L1.27 (antibody, V domains shown, also called VL-N34R; Kabat 28) VH: EVQLVESGGGLVQPGGSLRLSCAASGFTFSSFGMHWVRQAPGKGLEWVSYISSGSSIIYYADSVKGRFTISRDNAKNSLYLQMNSLRAEDTAVYYCARGGRLVWSPDYWGQGTLVTVSS VL: DIVMTQSPDSLAVSLGERATINCKSSQSLLNSGRQKNYLTWYQQKPGQPPKLLIYWASTRESGVPDRFTGSGSGTDFTLTISSLQAEDVAVYYCQNDYSYPFTFGSGTKLEIKR
29 nM | 0.00364 s⁻¹ | 126000 M⁻¹ s⁻¹ | H1_L1.37 (antibody, V domains shown, also called VL-Q35F; Kabat 29) VH: EVQLVESGGGLVQPGGSLRLSCAASGFTFSSFGMHWVRQAPGKGLEWVSYISSGSSIIYYADSVKGRFTISRDNAKNSLYLQMNSLRAEDTAVYYCARGGRLVWSPDYWGQGTLVTVSS VL: DIVMTQSPDSLAVSLGERATINCKSSQSLLNSGNFKNYLTWYQQKPGQPPKLLIYWASTRESGVPDRFTGSGSGTDFTLTISSLQAEDVAVYYCQNDYSYPFTFGSGTKLEIKR
57.6 nM | 0.00638 s⁻¹ | 111000 M⁻¹ s⁻¹ | H1_L1.35 (antibody, V domains shown, also called VL-Q35K; Kabat 29) VH: EVQLVESGGGLVQPGGSLRLSCAASGFTFSSFGMHWVRQAPGKGLEWVSYISSGSSIIYYADSVKGRFTISRDNAKNSLYLQMNSLRAEDTAVYYCARGGRLVWSPDYWGQGTLVTVSS VL: DIVMTQSPDSLAVSLGERATINCKSSQSLLNSGNKKNYLTWYQQKPGQPPKLLIYWASTRESGVPDRFTGSGSGTDFTLTISSLQAEDVAVYYCQNDYSYPFTFGSGTKLEIKR
305 nM | 0.0405 s⁻¹ | 133000 M⁻¹ s⁻¹ | H1_L1.29 (antibody, V domains shown, also called VL-N34T; Kabat 28) VH: EVQLVESGGGLVQPGGSLRLSCAASGFTFSSFGMHWVRQAPGKGLEWVSYISSGSSIIYYADSVKGRFTISRDNAKNSLYLQMNSLRAEDTAVYYCARGGRLVWSPDYWGQGTLVTVSS VL: DIVMTQSPDSLAVSLGERATINCKSSQSLLNSGTQKNYLTWYQQKPGQPPKLLIYWASTRESGVPDRFTGSGSGTDFTLTISSLQAEDVAVYYCQNDYSYPFTFGSGTKLEIKR
403 nM | 0.0539 s⁻¹ | 134000 M⁻¹ s⁻¹ | H1_L1.28 (antibody, V domains shown, also called VL-N34L; Kabat 28) VH: EVQLVESGGGLVQPGGSLRLSCAASGFTFSSFGMHWVRQAPGKGLEWVSYISSGSSIIYYADSVKGRFTISRDNAKNSLYLQMNSLRAEDTAVYYCARGGRLVWSPDYWGQGTLVTVSS VL: DIVMTQSPDSLAVSLGERATINCKSSQSLLNSGLQKNYLTWYQQKPGQPPKLLIYWASTRESGVPDRFTGSGSGTDFTLTISSLQAEDVAVYYCQNDYSYPFTFGSGTKLEIKR
30.5 nM | 0.00439 s⁻¹ | 144000 M⁻¹ s⁻¹ | H1_L1.38 (antibody, V domains shown, also called VL-Q35I; Kabat 29) VH: EVQLVESGGGLVQPGGSLRLSCAASGFTFSSFGMHWVRQAPGKGLEWVSYISSGSSIIYYADSVKGRFTISRDNAKNSLYLQMNSLRAEDTAVYYCARGGRLVWSPDYWGQGTLVTVSS VL: DIVMTQSPDSLAVSLGERATINCKSSQSLLNSGNIKNYLTWYQQKPGQPPKLLIYWASTRESGVPDRFTGSGSGTDFTLTISSLQAEDVAVYYCQNDYSYPFTFGSGTKLEIKR
8.6 nM | 0.00135 s⁻¹ | 157000 M⁻¹ s⁻¹ | H1_L1.45 (antibody, human IgG1, kappa, V domains shown, also called VL-K36Y; Kabat 30) VH: EVQLVESGGGLVQPGGSLRLSCAASGFTFSSFGMHWVRQAPGKGLEWVSYISSGSSIIYYADSVKGRFTISRDNAKNSLYLQMNSLRAEDTAVYYCARGGRLVWSPDYWGQGTLVTVSS VL: DIVMTQSPDSLAVSLGERATINCKSSQSLLNSGNQYNYLTWYQQKPGQPPKLLIYWASTRESGVPDRFTGSGSGTDFTLTISSLQAEDVAVYYCQNDYSYPFTFGSGTKLEIKR
42.7 nM | 0.00566 s⁻¹ | 133000 M⁻¹ s⁻¹ | H1_L1.33 (antibody, V domains shown, also called VL-Q35H; Kabat 29) VH: EVQLVESGGGLVQPGGSLRLSCAASGFTFSSFGMHWVRQAPGKGLEWVSYISSGSSIIYYADSVKGRFTISRDNAKNSLYLQMNSLRAEDTAVYYCARGGRLVWSPDYWGQGTLVTVSS VL: DIVMTQSPDSLAVSLGERATINCKSSQSLLNSGNHKNYLTWYQQKPGQPPKLLIYWASTRESGVPDRFTGSGSGTDFTLTISSLQAEDVAVYYCQNDYSYPFTFGSGTKLEIKR
36.5 nM | 0.0049 s⁻¹ | 134000 M⁻¹ s⁻¹ | H1_L1.42 (antibody, V domains shown, also called VL-K36D; Kabat 30) VH: EVQLVESGGGLVQPGGSLRLSCAASGFTFSSFGMHWVRQAPGKGLEWVSYISSGSSIIYYADSVKGRFTISRDNAKNSLYLQMNSLRAEDTAVYYCARGGRLVWSPDYWGQGTLVTVSS VL: DIVMTQSPDSLAVSLGERATINCKSSQSLLNSGNQDNYLTWYQQKPGQPPKLLIYWASTRESGVPDRFTGSGSGTDFTLTISSLQAEDVAVYYCQNDYSYPFTFGSGTKLEIKR
42.1 nM | 0.00451 s⁻¹ | 107000 M⁻¹ s⁻¹ | H1_L1.34 (antibody, V domains shown, also called VL-Q35N; Kabat 29) VH: EVQLVESGGGLVQPGGSLRLSCAASGFTFSSFGMHWVRQAPGKGLEWVSYISSGSSIIYYADSVKGRFTISRDNAKNSLYLQMNSLRAEDTAVYYCARGGRLVWSPDYWGQGTLVTVSS VL: DIVMTQSPDSLAVSLGERATINCKSSQSLLNSGNNKNYLTWYQQKPGQPPKLLIYWASTRESGVPDRFTGSGSGTDFTLTISSLQAEDVAVYYCQNDYSYPFTFGSGTKLEIKR
39.8 nM | 0.00546 s⁻¹ | 137000 M⁻¹ s⁻¹ | H1_L1.43 (antibody, V domains shown, also called VL-K36A; Kabat 30) VH: EVQLVESGGGLVQPGGSLRLSCAASGFTFSSFGMHWVRQAPGKGLEWVSYISSGSSIIYYADSVKGRFTISRDNAKNSLYLQMNSLRAEDTAVYYCARGGRLVWSPDYWGQGTLVTVSS VL: DIVMTQSPDSLAVSLGERATINCKSSQSLLNSGNQANYLTWYQQKPGQPPKLLIYWASTRESGVPDRFTGSGSGTDFTLTISSLQAEDVAVYYCQNDYSYPFTFGSGTKLEIKR
35 nM | 0.00476 s⁻¹ | 136000 M⁻¹ s⁻¹ | H1_L1.32 (antibody, V domains shown, also called VL-Q35E; Kabat 29) VH: EVQLVESGGGLVQPGGSLRLSCAASGFTFSSFGMHWVRQAPGKGLEWVSYISSGSSIIYYADSVKGRFTISRDNAKNSLYLQMNSLRAEDTAVYYCARGGRLVWSPDYWGQGTLVTVSS VL: DIVMTQSPDSLAVSLGERATINCKSSQSLLNSGNEKNYLTWYQQKPGQPPKLLIYWASTRESGVPDRFTGSGSGTDFTLTISSLQAEDVAVYYCQNDYSYPFTFGSGTKLEIKR
60.9 nM | 0.00678 s⁻¹ | 111000 M⁻¹ s⁻¹ | H1_L1.36 (antibody, V domains shown, also called VL-Q35A; Kabat 29) VH: EVQLVESGGGLVQPGGSLRLSCAASGFTFSSFGMHWVRQAPGKGLEWVSYISSGSSIIYYADSVKGRFTISRDNAKNSLYLQMNSLRAEDTAVYYCARGGRLVWSPDYWGQGTLVTVSS VL: DIVMTQSPDSLAVSLGERATINCKSSQSLLNSGNAKNYLTWYQQKPGQPPKLLIYWASTRESGVPDRFTGSGSGTDFTLTISSLQAEDVAVYYCQNDYSYPFTFGSGTKLEIKR
26.4 nM | 0.00324 s⁻¹ | 123000 M⁻¹ s⁻¹ | H1_L1.46 (antibody, V domains shown, also called VL-K36I; Kabat 30) VH: EVQLVESGGGLVQPGGSLRLSCAASGFTFSSFGMHWVRQAPGKGLEWVSYISSGSSIIYYADSVKGRFTISRDNAKNSLYLQMNSLRAEDTAVYYCARGGRLVWSPDYWGQGTLVTVSS VL: DIVMTQSPDSLAVSLGERATINCKSSQSLLNSGNQINYLTWYQQKPGQPPKLLIYWASTRESGVPDRFTGSGSGTDFTLTISSLQAEDVAVYYCQNDYSYPFTFGSGTKLEIKR
61.9 nM | 0.00901 s⁻¹ | 146000 M⁻¹ s⁻¹ | H1_L1.30 (antibody, V domains shown, also called VL-N34G; Kabat 28) VH: EVQLVESGGGLVQPGGSLRLSCAASGFTFSSFGMHWVRQAPGKGLEWVSYISSGSSIIYYADSVKGRFTISRDNAKNSLYLQMNSLRAEDTAVYYCARGGRLVWSPDYWGQGTLVTVSS VL: DIVMTQSPDSLAVSLGERATINCKSSQSLLNSGGQKNYLTWYQQKPGQPPKLLIYWASTRESGVPDRFTGSGSGTDFTLTISSLQAEDVAVYYCQNDYSYPFTFGSGTKLEIKR
39.7 nM | 0.00508 s⁻¹ | 128000 M⁻¹ s⁻¹ | H1_L1.41 (antibody, V domains shown, also called VL-K36H; Kabat 30) VH: EVQLVESGGGLVQPGGSLRLSCAASGFTFSSFGMHWVRQAPGKGLEWVSYISSGSSIIYYADSVKGRFTISRDNAKNSLYLQMNSLRAEDTAVYYCARGGRLVWSPDYWGQGTLVTVSS VL: DIVMTQSPDSLAVSLGERATINCKSSQSLLNSGNQHNYLTWYQQKPGQPPKLLIYWASTRESGVPDRFTGSGSGTDFTLTISSLQAEDVAVYYCQNDYSYPFTFGSGTKLEIKR
